Assay results taken from patent publication US20180155451A1 (published 2018).

T1: FcγRIIb extracellular domain with C-terminal His tag (human, UniProt P31994 43-217)
T1 construct: extracellular domain; also called FcgRIIb; 2b; not shown: His tag at the C terminus
T1 sequence (looked up): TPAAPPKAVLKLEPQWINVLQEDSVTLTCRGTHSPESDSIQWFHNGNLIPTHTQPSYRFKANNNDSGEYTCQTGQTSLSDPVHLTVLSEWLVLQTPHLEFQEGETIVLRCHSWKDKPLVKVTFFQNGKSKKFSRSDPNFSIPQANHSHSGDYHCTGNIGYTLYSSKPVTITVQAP

B1: GpH7-A5/GpH7-B3 variant A327_01G/GpL16-k0 (antibody, human IgG1, kappa)
heavy 1: not shown
heavy 2: not shown
light: DIVMTQSPLSLPVTPGEPASISCQASESLVHSNRNTYLHWYLQKPGQSPQLLIYKVSNRFSGVPDRFSGSGSGTDFTLKISRVEAEDVGVYYCSQNTHVPPTFGQGTKVEIERTVAAPSVFIFPPSDEQLKSGTASVVCLLNNFYPREAKVQWKVDNALQSGNSQESVTEQDSKDSTYSLSSTLTLSKADYEKHKVYACEVTHQGLSSPVTKSFNRGEC
notes: Heterodimerized anti-glypican-3 IgG1; the substitution stands in the GpH7-B3 chain only; also called He Ab
B2: GpH7-A5/GpH7-B3 variant S298_06M/GpL16-k0 (antibody, human IgG1, kappa)
heavy 1: not shown
heavy 2: not shown
light: B1 light
notes: as for B1
B3: GpH7-A5/GpH7-B3 variant N325_01G/GpL16-k0 (antibody, human IgG1, kappa)
heavy 1: not shown
heavy 2: not shown
light: B1 light
notes: as for B1
B4: GpH7-A5/GpH7-B3 variant H268_05P/GpL16-k0 (antibody, human IgG1, kappa)
heavy 1: not shown
heavy 2: not shown
light: B1 light
notes: as for B1
B5: GpH7-A5/GpH7-B3 variant K326_20W/GpL16-k0 (antibody, human IgG1, kappa)
heavy 1: not shown
heavy 2: not shown
light: B1 light
notes: as for B1
B6: GpH7-A5/GpH7-B3 variant H268_20W/GpL16-k0 (antibody, human IgG1, kappa)
heavy 1: not shown
heavy 2: not shown
light: B1 light
notes: as for B1
B7: GpH7-A5/GpH7-B3 variant S267_19Q/GpL16-k0 (antibody, human IgG1, kappa)
heavy 1: not shown
heavy 2: not shown
light: B1 light
notes: as for B1
B8: GpH7-A5/GpH7-B3 variant H268_01G/GpL16-k0 (antibody, human IgG1, kappa)
heavy 1: not shown
heavy 2: not shown
light: B1 light
notes: as for B1
B9: GpH7-A5/GpH7-B3 variant S267_14T/GpL16-k0 (antibody, human IgG1, kappa)
heavy 1: not shown
heavy 2: not shown
light: B1 light
notes: as for B1
B10: GpH7-A5/GpH7-B3 variant K326_16H/GpL16-k0 (antibody, human IgG1, kappa)
heavy 1: not shown
heavy 2: not shown
light: B1 light
notes: as for B1
B11: GpH7-A5/GpH7-B3 variant P271_08L/GpL16-k0 (antibody, human IgG1, kappa)
heavy 1: not shown
heavy 2: not shown
light: B1 light
notes: as for B1
B12: GpH7-A5/GpH7-B3 variant P271_09D/GpL16-k0 (antibody, human IgG1, kappa)
heavy 1: not shown
heavy 2: not shown
light: B1 light
notes: as for B1
B13: GpH7-A5/GpH7-B3 variant S298_08L/GpL16-k0 (antibody, human IgG1, kappa)
heavy 1: not shown
heavy 2: not shown
light: B1 light
notes: as for B1
B14: GpH7-A5/GpH7-B3 variant H268_03V/GpL16-k0 (antibody, human IgG1, kappa)
heavy 1: not shown
heavy 2: not shown
light: B1 light
notes: as for B1
B15: GpH7-A5/GpH7-B3 variant Y300_19Q/GpL16-k0 (antibody, human IgG1, kappa)
heavy 1: not shown
heavy 2: not shown
light: B1 light
notes: as for B1
B16: GpH7-A5/GpH7-B3 variant H268_15Y/GpL16-k0 (antibody, human IgG1, kappa)
heavy 1: not shown
heavy 2: not shown
light: B1 light
notes: as for B1
B17: GpH7-A5/GpH7-B3 variant P271_10E/GpL16-k0 (antibody, human IgG1, kappa)
heavy 1: not shown
heavy 2: not shown
light: B1 light
notes: as for B1

target: T2, FcγRIIIa extracellular domain with C-terminal His tag (human, UniProt P08637 17-208); test: SPR (Biacore), antibody captured on antigen peptide chip, FcγR as analyte; relative binding amount
T2 construct: extracellular domain; also called FcgRIIIa; 3a; not shown: His tag at the C terminus
T2 sequence (P08637 17-208): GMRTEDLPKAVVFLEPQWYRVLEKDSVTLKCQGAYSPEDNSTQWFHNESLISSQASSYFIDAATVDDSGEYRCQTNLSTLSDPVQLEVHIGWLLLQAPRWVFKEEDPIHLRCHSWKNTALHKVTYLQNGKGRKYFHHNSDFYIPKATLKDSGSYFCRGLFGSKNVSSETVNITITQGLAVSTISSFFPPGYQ
Procedure: (§1) Analysis of interaction between objective antibody and the FcγR was carried out using Biacore T100 (GE Healthcare). HBS-EP+ (GE Healthcare) was used as the running buffer, and the measurement temperature was set to 25° C. Chips produced by immobilizing the antigen peptide by the amine coupling method to a Series S Sencor Chip CM5 (GE Healthcare), or alternatively, chips produced by allowing preliminarily biotinylated antigen peptides to interact with and immobilize onto a Series S Sensor Chip SA (certified) (GE Healthcare) were used. Antibodies of interest were captured onto an antigen peptide-immobilized chip, and allowed to interact to each FcγR diluted with running buffer. To regenerate and repeatedly use the chip, the antibodies captured on the chip were washed off by reacting 10 mM glycine-HCl, pH 1.5.
(§2) The FcγR-binding activity of each antibody was assessed primarily using as an indicator the FcγR-binding activity and dissociation constant for FcγR.

| He/Con_3a | Binder |
| --- | --- |
| 72.4 % of GpH7-A5/GpH7-B3/GpL16-k0 (=100) | B1 |
| 92.6 % of GpH7-A5/GpH7-B3/GpL16-k0 (=100) | B2 |
| 28 % of GpH7-A5/GpH7-B3/GpL16-k0 (=100) | B3 |
| 76.4 % of GpH7-A5/GpH7-B3/GpL16-k0 (=100) | B4 |
| 84.8 % of GpH7-A5/GpH7-B3/GpL16-k0 (=100) | B5 |
| 82.8 % of GpH7-A5/GpH7-B3/GpL16-k0 (=100) | B6 |
| 65 % of GpH7-A5/GpH7-B3/GpL16-k0 (=100) | B7 |
| 96.7 % of GpH7-A5/GpH7-B3/GpL16-k0 (=100) | B8 |
| 45.6 % of GpH7-A5/GpH7-B3/GpL16-k0 (=100) | B9 |
| 96.1 % of GpH7-A5/GpH7-B3/GpL16-k0 (=100) | B10 |
| 71 % of GpH7-A5/GpH7-B3/GpL16-k0 (=100) | B11 |
| 93.1 % of GpH7-A5/GpH7-B3/GpL16-k0 (=100) | B12 |
| 73.5 % of GpH7-A5/GpH7-B3/GpL16-k0 (=100) | B13 |
| 92.3 % of GpH7-A5/GpH7-B3/GpL16-k0 (=100) | B14 |
| 96.3 % of GpH7-A5/GpH7-B3/GpL16-k0 (=100) | B15 |
| 97.5 % of GpH7-A5/GpH7-B3/GpL16-k0 (=100) | B16 |
| 93.6 % of GpH7-A5/GpH7-B3/GpL16-k0 (=100) | B17 |

target: T1, FcγRIIb extracellular domain with …; test: as above
Procedure: as §1, §2

| He/Con_2b | Binder |
| --- | --- |
| 116 % of GpH7-A5/GpH7-B3/GpL16-k0 (=100) | B1 |
| 102 % of GpH7-A5/GpH7-B3/GpL16-k0 (=100) | B2 |
| 101 % of GpH7-A5/GpH7-B3/GpL16-k0 (=100) | B3 |
| 116 % of GpH7-A5/GpH7-B3/GpL16-k0 (=100) | B4 |
| 148 % of GpH7-A5/GpH7-B3/GpL16-k0 (=100) | B5 |
| 111 % of GpH7-A5/GpH7-B3/GpL16-k0 (=100) | B6 |
| 218 % of GpH7-A5/GpH7-B3/GpL16-k0 (=100) | B7 |
| 144 % of GpH7-A5/GpH7-B3/GpL16-k0 (=100) | B8 |
| 104 % of GpH7-A5/GpH7-B3/GpL16-k0 (=100) | B9 |
| 119 % of GpH7-A5/GpH7-B3/GpL16-k0 (=100) | B10 |
| 103 % of GpH7-A5/GpH7-B3/GpL16-k0 (=100) | B11 |
| 120 % of GpH7-A5/GpH7-B3/GpL16-k0 (=100) | B12 |
| 108 % of GpH7-A5/GpH7-B3/GpL16-k0 (=100) | B13 |
| 114 % of GpH7-A5/GpH7-B3/GpL16-k0 (=100) | B14 |
| 108 % of GpH7-A5/GpH7-B3/GpL16-k0 (=100) | B15 |
| 106 % of GpH7-A5/GpH7-B3/GpL16-k0 (=100) | B16 |
| 109 % of GpH7-A5/GpH7-B3/GpL16-k0 (=100) | B17 |
